Experimental data from PMC5481743, “Cryptic indole hydroxylation by a non-canonical terpenoid cyclase parallels bacterial xenobiotic detoxification” (Nature Communications, 2017).
Values belong to the molecule of their own block, whether it stands above or below them.

Assays:
XiaF = biological target: T1, XiaF (Streptomyces sp. HKI0576, UniProt I7IIA9); test: HPLC-HRMS biotransformation assay; type: biochemical; details: 100 uM substrate, 500 uM NADH, 50 uM FAD, flavin reductase XiaP, pH 8.0, 28 °C
T1 construct: full-length (Met1-Leu397), N-terminal His-tag (pET-28b, thrombin-cleavable; pET-26b with MHHHHHH for crystals); from E. coli; homotetramer

[1] = biological target: His-tagged XiaF (44.5 kDa, from pXU520) (Streptomyces sp. HKI0576); test: SEC; HiLoad 16/600 Superdex 200 prep grade; 20 mM Tris-HCl pH 8.0, 100 mM NaCl; calibrated with Gel Filtration Calibration Kits
[2] = biological target: XiaF (recombinant, N-terminal histidine-tag, construct pET26b(+)-xiaF used for crystallization) (Streptomyces sp. HKI0576); test: crystal structure; hanging drop vapour diffusion at 20 °C; XiaF apo (5LVU), with FADH2 (5LVW), with FADH2 and glycerol (5MR6); molecular replacement
[3] = biological target: untagged XiaF (42.4 kDa, tag cleaved with thrombin) (Streptomyces sp. HKI0576); test: SEC; HiLoad 16/600 Superdex 200 prep grade; 20 mM Tris-HCl pH 8.0, 100 mM NaCl; calibrated with Gel Filtration Calibration Kits
[4] = biological target: the molecule itself; test: SEC; HiLoad 16/600 Superdex 200 prep grade; 100 mM NaH2PO4, 100 mM Na2HPO4, 2% glycerol, pH 7.0

T1 sequence (I7IIA9 entry or part of it): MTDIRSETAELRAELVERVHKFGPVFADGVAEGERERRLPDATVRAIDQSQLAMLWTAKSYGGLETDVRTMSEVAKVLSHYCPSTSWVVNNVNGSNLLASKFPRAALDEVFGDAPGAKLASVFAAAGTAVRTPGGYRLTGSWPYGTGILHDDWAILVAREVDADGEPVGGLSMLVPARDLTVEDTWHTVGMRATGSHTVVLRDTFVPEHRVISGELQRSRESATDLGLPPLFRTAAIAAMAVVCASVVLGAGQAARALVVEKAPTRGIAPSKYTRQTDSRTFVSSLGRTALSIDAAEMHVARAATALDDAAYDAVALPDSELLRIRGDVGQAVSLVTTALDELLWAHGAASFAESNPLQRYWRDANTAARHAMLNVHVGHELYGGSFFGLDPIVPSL

Molecule: C=C1CC[C@@H]2[C@](C)(CC[C@H](O)[C@@]2(C)C(=O)O)[C@H]1Cc1c[nH]c2ccccc12 [compound 2, indosespene]
HPLC-HRMS biotransformation assay (XiaF): we found that XiaP substantially increases the performance of XiaF

Molecule: XiaF (recombinant, N-terminal histidine-tag, construct pET26b(+)-xiaF used for crystallization) (enzyme)
stoichiometry N [2]: 4

B1: His-tagged XiaP (enzyme, Streptomyces sp. HKI0576)
chain: MIDRETFVELMSGVCAPVTVVTTATADGRPHGSTVSSFTSLSLDPPLASFALDRGSGLLPHLHQGARVGVNILAAHQHALAASFARRCPGTGSKFDGITWTTRAGLPHLPDSAGWTAGRVERHVPGGDHVLLVISVEEAHSTPAAPLVYLRRSFGTYSGLPAGG
notes: XiaP, NADH:flavin oxidoreductase of Streptomyces sp; HKI0576; also called flavin reductase XiaP; flavoenzyme-reductase; source: E. coli BL21-CodonPlus(DE3)-RP (pET28c-xiaP), purified (Ni-NTA, SEC)
stoichiometry N [4]: 2

The next lines start with the values.

stoichiometry N [1]: 4
Molecule: His-tagged XiaF (44.5 kDa, from pXU520) (enzyme)

stoichiometry N [3]: 4
Molecule: untagged XiaF (42.4 kDa, tag cleaved with thrombin) (enzyme)
